Results reported in article PMC6028960, “The kinetochore proteins CENP-E and CENP-F directly and specifically interact with distinct BUB mitotic checkpoint Ser/Thr kinases” (The Journal of Biological Chemistry, 2018).

B1: eGFP-CENP-E^2070-C (domain or fragment, human, UniProt Q02224 2070-2701, looked up)
chain: RQNHQVKPEKRLLSDGQQHLTESLREKCSRIKELLKRYSEMDDHYECLNRLSLDLEKEIEFQKELSMRVKANLSLPYLQTKHIEKLFTANQRCSMEFHRIMKKLKYVLSYVTKIKEEQHESINKFEMDFIDEVEKQKELLIKIQHLQQDCDVPSRELRDLKLNQNMDLHIEEILKDFSESEFPSIKTEFQQVLSNRKEMTQFLEEWLNTRFDIEKLKNGIQKENDRICQVNNFFNNRIIAIMNESTEFEERSATISKEWEQDLKSLKEKNEKLFKNYQTLKTSLASGAQVNPTTQDNKNPHVTSRATQLTTEKIRELENSLHEAKESAMHKESKIIKMQKELEVTNDIIAKLQAKVHESNKCLEKTKETIQVLQDKVALGAKPYKEEIEDLKMKLVKIDLEKMKNAKEFEKEISATKATVEYQKEVIRLLRENLRRSQQAQDTSVISEHTDPQPSNKPLTCGGGSGIVQNTKALILKSEHIRLEKEISKLKQQNEQLIKQKNELLSNNQHLSNEVKTWKERTLKREAHKQVTCENSPKSPKVTGTASKKKQITPSQCKERNLQDPVPKESPKSCFFDSRSKSLPSPHPVRYFDNSSLGLCPEVQNAGAESVDSQPGPWHASSGKDVPECKTQ
notes: codon-optimized cDNA; N-terminal PreScission-cleavable His6-eGFP tag from the pLIB-eGFP vector; source: insect cells (baculovirus made in Sf9, Tnao38 infected), purified (HisTrap, Superose 6 SEC); not shown: eGFP, N-terminal, kept

Legend:
[1] = molecular target: the molecule itself; experiment: AUC; sedimentation velocity, 42,000 rpm, 20 °C; 6 μM mCherry-CENP-F fragment alone, scanned at 587 nm; self-association
BUBR1/BUB3 complex = molecular target: T1, BUBR1/BUB3 complex (human | , UniProt O60566 1-1050; O43684 1-328); experiment: SEC; analytical SEC; 4 μM BUB1 or BUBR1 constructs or BUB1/BUB3 or BUBR1/BUB3 complexes mixed with 16 μM CENP-E or CENP-F proteins in 30 μl; 4 °C; Superose 6 5/150 or Superdex 75 5/150; 50 mM Hepes pH 8.0, 100 mM NaCl, 5% glycerol, 0.5 mM TCEP; fractions by SDS-PAGE; settings: both partners purified
T1 construct: human BUB1-related (BUBR1) mitotic checkpoint Ser/Thr kinase, full-length, co-expressed with BUB3; BUB3, co-expressed with BUBR1; also called dimeric BUBR1/BUB3 complex

eGFP-CENP-E^2070-C = molecular target: B1; experiment: as above; settings: both partners purified

T1 sequence (O43684 whole entry, one chain of several): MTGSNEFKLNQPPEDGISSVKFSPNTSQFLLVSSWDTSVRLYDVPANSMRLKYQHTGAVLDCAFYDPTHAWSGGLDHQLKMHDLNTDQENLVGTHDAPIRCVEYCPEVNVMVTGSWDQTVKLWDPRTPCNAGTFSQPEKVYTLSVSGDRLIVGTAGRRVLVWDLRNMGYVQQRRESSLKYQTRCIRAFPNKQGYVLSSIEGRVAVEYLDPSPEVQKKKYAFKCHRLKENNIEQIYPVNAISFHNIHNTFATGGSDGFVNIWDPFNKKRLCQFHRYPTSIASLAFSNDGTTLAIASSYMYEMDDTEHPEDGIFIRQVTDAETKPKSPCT

Row | Binder | stoichiometry N [1] | other results
1 | mCherry-CENP-F(2922–2990) (domain or fragment, human, UniProt P49454 2826-2894, looked up, Dimer by sedimentation velocity AUC; source: E. coli BL21 (DE3) RP plus, purified (HisTrap, Superdex 75 SEC); not shown: mCherry, N-terminal, kept) QKTGTVMDTKVDELTTEIKELKETLEEKTKEADEYLDKYCSLLISHEKLEKAKEMLETQVAHLCSQQSK | 2 | 
2 | B1 |  | binding result (BUBR1/BUB3 complex): binds
3 | mCherry-CENP-F(2866–2990) (domain or fragment, human, UniProt P49454 2770-2894, looked up, Dimer by sedimentation velocity AUC; source: E. coli BL21 (DE3) RP plus, purified (HisTrap, Superdex 75 SEC); not shown: mCherry, N-terminal, kept) LKKTKMDNLKYVNQLKKENERAQGKMKLLIKSCKQLEEEKEILQKELSQLQAAQEKQKTGTVMDTKVDELTTEIKELKETLEEKTKEADEYLDKYCSLLISHEKLEKAKEMLETQVAHLCSQQSK | 2 | 
4 | BUBR1 pseudokinase domain (KinD, residues 705–1050) (domain or fragment, human, UniProt O60566 705-1050, looked up, human BUBR1, pseudokinase domain, residues 705-1050; also called BUBR1 pseudo-kinase domain (KinD) construct; BUBR1 KinD) EKLELTNETSENPTQSPWCSQYRRQLLKSLPELSASAELCIEDRPMPKLEIEKEIELGNEDYCIKREYLICEDYKLFWVAPRNSAELTVIKVSSQPVPWDFYINLKLKERLNEDFDHFCSCYQYQDGCIVWHQYINCFTLQDLLQHSEYITHEITVLIIYNLLTIVEMLHKAEIVHGDLSPRCLILRNRIHDPYDCNKNNQALKIVDFSYSVDLRVQLDVFTLSGFRTVQILEGQKILANCSSPYQVDLFGIADLAHLLLFKEHLQVFWDGSFWKLSQNISELKDGELWNKFFVRILNANDEATVSVLGELAAEMNGVFDTTFQSHLNKALWKVGKLTSPGALLFQ |  | binding result (eGFP-CENP-E^2070-C): binds
